According to IntAct's records for PubMed 11313760:

B1: Prelamin-A/C (Homo sapiens), P02545-1 (parent)
chain: METPSQRRATRSGAQASSTPLSPTRITRLQEKEDLQELNDRLAVYIDRVRSLETENAGLRLRITESEEVVSREVSGIKAAYEAELGDARKTLDSVAKERARLQLELSKVREEFKELKARNTKKEGDLIAAQARLKDLEALLNSKEAALSTALSEKRTLEGELHDLRGQVAKLEAALGEAKKQLQDEMLRRVDAENRLQTMKEELDFQKNIYSEELRETKRRHETRLVEIDNGKQREFESRLADALQELRAQHEDQVEQYKKELEKTYSAKLDNARQSAERNSNLVGAAHEELQQSRIRIDSLSAQLSQLQKQLAAKEAKLRDLEDSLARERDTSRRLLAEKEREMAEMRARMQQQLDEYQELLDIKLALDMEIHAYRKLLEGEEERLRLSPSPTSQRSRGRASSHSSQTQGGGSVTKKRKLESTESRSSFSQHARTSGRVAVEEVDEEGKFVRLRNKSNEDQSMGNWQIKRQNGDDPLLTYRFPPKFTLKAGQVVTIWAAGAGATHSPPTDLVWKAQNTWGCGNSLRTALINSTGEEVAMRKLVRSVTVVEDDEDEDGDDLLHHHHGSHCSSSGDPAEYNLRSRTVLCGTCGQPADKASASGSGAQVGGPISSGSSASSVTVTRSYRSVGGSGGGSFGDNLVTRSYLLGNSSPRTQSPQNCSIM
partner: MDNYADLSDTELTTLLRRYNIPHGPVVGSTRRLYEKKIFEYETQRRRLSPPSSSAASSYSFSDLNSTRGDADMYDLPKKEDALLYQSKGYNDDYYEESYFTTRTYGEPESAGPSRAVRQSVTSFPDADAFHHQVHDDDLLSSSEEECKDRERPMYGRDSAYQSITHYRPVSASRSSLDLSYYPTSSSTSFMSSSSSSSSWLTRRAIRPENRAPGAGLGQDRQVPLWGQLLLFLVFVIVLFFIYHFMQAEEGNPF

Variants of: B1
Conditions: with emd_human EMD
In the case of R482Q, the “effect of a mutation on the interaction” value is reported as “with no effect”.
